Experimental data taken from the domain aggregation screens of Martell et al. (2025).

Experiment: soluble fraction after stress (log2 fold change); higher = more stays soluble; pooled small domains, quantitative proteomics
Conditions: stress: 75 degC
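Also: 20 min heating vs room temperature control held 20 min.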

Sequence | soluble fraction (log2)
HMQNFLSITSKEKIDIGNFQLISFKFENNLYDYVISGNKSELLIFQEKTIENNNENIEKITSNF | -2.54
HMQNLETVEEIKELALNYLDKYQPSKKSLQVYLFRKAIDAQSNSVEKSEILKKIETVLTDLEEQGILNDAL | -0.135
HMQNMVYVATKDIPAGGVIDQDSVSKTAISTSIDTSLYITDDDLGKIAVVNISQGQSVFSNMVGT | 0.656
HMQNNITISKEIELRTGPDDTYPTLKKVTAGDNVEMLSKSDTWYEIKTNDSFVGWVPGWSIL | -0.0886
HMQNSYSVEDLALKAGLSVDTIRYYQGLDLIAPPQKNGRRAIYGDEHLSRLDEIKKLALEGFSLRQISLLK | -0.739
HMQNYNLTQQEKKVLQLLVSGKSYKMIAAELNVAFDTVKSHITNIYSKLHVHSGTEAVSVAIRDKI | -1.46
HMQPDDELVRLLLIKIFNDKQLKVNPAVINYLLRRIDRSFESINNFVKKIDEFSLEKGRKITVNLVSGFF | -0.777
HMQPFTELTPREREILGHLAEGQSNKVIARHLDISDGTVKLHVKAILRKLGVHSRVEAAVMAVEHGIR | -2.11
HMQPIEIQDRITKAFERSAALEAKNINVEVDGHTVKLTGTVHSLTEKEEARKAAFFAPGVTKVENHLIVDY | 0.0424
HMQPMIQIHTLANHAPVALHIKRNTQRNIIIRARDASSLNLSIPKWFSPAQLQNWLRDNEATLIRILQQAP | -3.6
HMQPPKIISTVEPYREVVREYLKQGVEMTAIWQRLRENYQYTGSYSSVRRFVAQLEPRQPEA | -1.9
HMQPQLFRVIADDGLNIRSGPGPEYPPVAPMLRKGTQVELLQAGDRWSKVEVVGSTDVEGWVNQRYLQAV | -0.169
HMQPSQTLSATVEFPDRLDRFLALAFPEVSRARFQRLIAEGHVSVEGVPATEIRHKLKAGQRVEAVIPPA | -0.276
HMQPTVEGLMKALETMTFNERTALALHYGLTGRQPMTFMAIGRYLGISDGRAEALVNSAIRKLR | -1.8
HMQQGVEQLPVTEVGGRLMHYYEVQPKETLYSLSHKLGVGQEYIEQHNPSVRGGLRAFMTLYFPAA | -0.00835
HMQQIAVDLSEFKPRLMRDMSSMLAGLYTHDLDLSSLDFSKVANFTFMFRGAIITGTLKMPKI | 0.202
HMQQLDDDTVAYVADNGIAVKSKNGKELSVDTSGLSYDIIMDMFRNLPRNGDFFSSKYWSDNIQKAQAR | 0.447
HMQQLIEFSVTKGHPWINKKIMDLNLPENQLILTIQREGHVVSAEGKTIILENDRITISTDDR | -1.26
HMQQPVVVQQNQTVRVVTGGPGFQVANEGRALNNGLAGQVVQVRLGNGQIISGIARAGGIVEIL | -0.017
HMQQSQLDDIKSVVGGDEGYNKLREWTQANVPDETLKAFDKILDTQDPTMIKVAVEGFAAQMRQAE | -0.232
HMQQTAEDWKNKGDSLTAQSEYVEAIAAYDEAIRLDPNYAPAWSNKGNALKNLGEYYKAIQAYDEAIRL | 0.104
HMQQYLDAYDKALAFGIAMNKLPSYENLTLDDKEDVDKLKEIYDGMSNYEKTFVAKDFTDKLDRYVKRIE | 0.347
HMQRADYLILYYIKMQAEQHPDSKVYLADLAAVMGLKVTELSKAVEKLQDNGFVAWKTDREAGRTYVELS | -3.13
HMQRIFIDNHDRILYYSNPAGYIAGKEAVVDTMFQTQELERFLQKQSLSIRWEDGVYDRLLLGQ | -0.0579
HMQRRHESTPIPADFDYAAVRGLSAEVQQKLERVRPLSIGQAQRIPGMTPAAISLLLVHLERQRRSRV | -1.24
HMQRSVKNNDTVQVHYTGKLTNGQIFDSSIDKQPLEFQLGQGQIIPGFEKGLIDMTVSEKKTITIPEAEAY | 0.193
HMQSAEMTLDREGQPVQVRVELTGNEARITFLSDQEQTREALDAGMAQLRELLEQQGMVLAGVTV | -0.00816
HMQSDQLSDREREILRLIGSGRTNQEISQELQVSGSTVRTHLQHILDKLGLENRNQAVLYAIRIGLAAPP | -0.163

Sequence | soluble fraction (log2)
HMQSHGSRIWTDITGNFTREASFIELAEGKVTLQLTDGRRTIISFEILSKKDQEYVLDIGDS | -2.77
HMQSKDDLLDTFRVVKGNAALLNDQNKKLIRSLKVSSFGFTGITDQAAEVKKEMPDVLLEKASIEDILF | 0.0597
HMQSLAAKINGYIVAQRTSIAAIAKEIGYSRVTVSRYLAGKYDSDPTGIEAKLAAFLAGQTGEE | -3.99
HMQSNIHELQKKLNEALQALSEDHRAVVTMFDIQGMPHAEISKILGVSEGTVRSRLYYAHQQLQGHL | -1.11
HMQSRYALLAGMLRARITEGDWVPGSAIPAETVLAKEHGVALGTMRQAIALLVSQGLLERQHGRGTFVRS | -1.58
HMQSSDQTDNIYENAVSIVLETGKASASHLQRVLGIDYNLAAHLIDKMEDGGLLSPPNYLGHRDVYGYT | 0.317
HMQTFNADDIEPIIKEILQENPKAISDFLTGNENVVKFLLGQVMKNTKGKANPKVIEELLINQLRELNN | -0.235
HMQTGYHVRITASTLNVRRDHSASSAVATQVRRGEVYTIVDEYNNGGTLWGKLKSGAGWIALKYTQS | -3.39
HMQTTITITNTVTGQKAQFPPPFNPMSLSKIGVDETFEKEVFVDGVDTFGYGLDGYLTFYELKDFLRSYQ | -2.61
HMQVEYTRGELLQDLKEENVLYATITPSRETPTGEVDFVFKDKSIKTLYVTDVSEIEGLLMDYGIDPEVKK | -0.454
HMQVITEPFQEKYREFINMSTVTQRLEERETLSFTAQTVEGRWLTIIIVPQGYDKTGKLSTVLVANR | 0.274
HMQVSDEGAIQLLVQKAIEENPQAIEAFRGGKTSALGPVVGWVMKQSKGAANPTMVKTLLEKAI | 0.154
HMQVVVEKSKEKVIISGNQYYIHIVKKGETAFSIAKAYGITVDELVKNNPSAATVLKEGQALRIPVVE | 0.0365
HMQYDESSQLGERFLNQALNALKADPDKVGDAQWEKLLKENSAKSRQEVLADIGLGKQLAIVIARELLS | -0.148
HMQYPSSLDSRAKQSLYDNLERNEILALALDNVIQSNKLDGWRDGGIKERKLRLAINNLLKNDEHTDNIME | -0.0341
HMQYQIITENGKQYYLYTVQKSEGFYSIGKRFEITNDEIIKANPEAALGLKLGQVLKIPVYK | -2.4
HMRAAKSEDTRTRLIEGGMALFGQKGYNATGIKDITDAAGVPKGSFYNYFASKEDFGAEIIHSY | 0.14
HMRAEELEQFVERLKNEVMNNFPLKELSDNELREKIENLVEIRLANVYVSIEQRVAIAEQIYSSIR | -1.1
HMRAERVQITDPYIELHTGPGRGFPIFFVAPREQWISIELRHTDWFKVRAVGGQVGWVQRKQLEST | -1.56
HMRAGHDFEALKHIESSLDKHLTDEGIKIKSEKRGAIVARWYQSHVEGREVTDDDVHTWIELFF | -2.82
HMRAPIGFRISNRRKSLKISQVALARLVGISPSYLNLIENNKRDVGGALLQRVALHLNIDIDDL | -3.13
HMRARTLSTTGGESLLTLAESLYPDDDRARARFIEATAAANPKLFADIAALTRVLPAGTTLRMPDLRA | -0.0128
HMRARTQYWPFVEEKAAELKLPLHLVNVEPLFGEQKVVVHYTANGRIDFRELVHLLARRFHARIEMR | 0.0673
HMRATLTDETARVVQEPTSESISLTSLRKGEEFEIGKVIRKKKEVWVTVTTSSGVKGYISGDTHIF | 0.00739
HMRAVFEQLRIGQTLAGVVKAQEKGFSLVEIDGQTVAMRLPHPAAVGDTLRLRFAGHMPQAVFLLES | -1.99
HMRAVPSIAFVTQKLIEQGVTMEQLVRSLLLDHEEYENDDSLERTADELFGKARMIISNYTPE | -1.08
HMRDADRYAFMQENVEDFAKDMRRKHMTYDVLYEEYIRRTDNPYGYTQFKAIVQEYEKNHDYK | -0.367
